Results from the supplement of paper PMC12042874.
± gives the uncertainty stated by the source.

Test: amyloid nucleation score (Sup35N fusion, yeast selection) (log enrichment); library NNK1; higher = more nucleation; inactive = no reads after selection
Procedure, shortened: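 Growth for 7 days at 30°C on medium lacking adenine and uracil followed a 24-hour induction with 100 μM copper sulfate of psi-negative yeast expressing peptides of 20 random codons fused to Sup35N. Input and output plasmid inserts were sequenced with Illumina, and sequences with under 100 input reads were excluded. Nucleation score is the DiMSum log enrichment of output over input reads, centred on the mode score of non-aggregating sequences.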

| Substance | amyloid nucleation score |
| --- | --- |
| ILLRSNIFMYFNMTEMPNSC | 6.798 ± 0.055 |
| ISPCDIYRHLSIKGQSCDLI | 0.004 ± 0.32 |
| DCYSRNVDLYGCGDDGDILL | -0.031 ± 0.25 |
| IAPTFSYMMERSLFTVGYDM | -0.042 ± 0.41 |
| FGNRDFSQSDYNSCVFATGS | 2.2 ± 0.44 |
| CIYIQYYLNLTVFCRVRLNA | -0.516 ± 1.7 |
| RLCASYSKYETFVADARRDG | 0.413 ± 0.19 |
| KYRSCGNGIPLIISHLLVER | 0.317 ± 0.26 |
| FNRKISFFCN | -0.393 ± 0.4 |
| RLDCIHNFALNSYFRIGAWG | -0.215 ± 0.45 |
| VAPVEYICELTLWA | -1.22 ± 2.7 |
| TLDLWNVRFC | -0.057 ± 1.4 |
| LFFSYMQLVTNSTCTYLRVF | 1.24 ± 0.74 |
| HMTLCRRGFISGQADYFVQ | 0.275 ± 1.2 |
| GSVCRCSDAPVSFRVGNSVG | -0.078 ± 0.27 |
| RMMSGRWFMMWWLLVANRGV | inactive |
| IFIFYGTRGSFRLRVAY | 2.72 ± 0.24 |
| IVEMHYMAGWTGMEMMSWAH | 0.413 ± 1 |
| ISYGKDNESGCLLHYFHAWV | inactive |
| RCGRAINGVQCVHWFVMSEG | 0.429 ± 0.58 |
| ILDVKAPR | 0.446 ± 0.64 |
| WDKFC | -1.16 ± 0.88 |
| GLFFNNKYA | 0.54 ± 0.84 |
| QISRCILNNPRPCLSF | 1.01 ± 0.9 |
| NVSSCDW | -1.22 ± 0.71 |
| IYGGRIS | -0.557 ± 0.75 |

| Substance | amyloid nucleation score |
| --- | --- |
| QYRGDIYKISG | 1.29 ± 0.56 |
| LFCFNRVD | inactive |
| IKHLKNMGFCVRESLYSDRF | -0.042 ± 0.59 |
| RFFPWQPCNPHIMPLIFWMP | 0.692 ± 0.82 |
| TSSWDSPCYQEAVFIGGYYI | 0.619 ± 0.47 |
| HNQCHVKYDYHYL | -0.183 ± 0.78 |
| LYIMLLLLLLTSQYT | -0.347 ± 0.63 |
| RQMRPLGRGPS | -0.169 ± 0.84 |
| YMKWTNDVNDTLDILFCVYL | 3.84 ± 0.069 |
| TYGMYFLFSYVSVCQY | 2.3 ± 0.13 |
| EYGLVRTLPVFRRVRRKYVG | -0.666 ± 0.67 |
| TVYYFG | 1.18 ± 0.19 |
| YCNGSLLRLAYMFGSGVSPR | 0.935 ± 0.46 |
| HYNFKDMNYKPLIVIEMHEW | 5.33 ± 0.055 |
| LDRKIK | 0.651 ± 0.39 |
| ARSFETLLTTSRGGKVDWLT | -0.272 ± 0.24 |
| SDQDTGLHTLPCHTRS | inactive |
| RSSCVELGWIGWRARTNR | 0.407 ± 0.57 |
| WQFYTVL | -0.246 ± 0.31 |
| TFSLCKWVHSANKGLVQMTF | 0.265 ± 0.41 |
| GDRRLSVLGPYMARSVWGER | -0.242 ± 0.31 |
| TSGFKLGRSGGYVCRS | 1.41 ± 0.78 |
| PKVWGGIHYFHFVTEYSTIS | 0.309 ± 0.29 |
| VDPYQVNYLNKLVTENYRVS | 0.097 ± 0.33 |
| TSEDMC | -1.18 ± 2.1 |
| RFLGIRTATMDMGSKERMWV | 0.601 ± 0.44 |

| Substance | amyloid nucleation score |
| --- | --- |
| PDRGEKLRRLNVWNKPCFGT | 0.829 ± 0.93 |
| ILICKSVRVQYTLSKLW | 1.8 ± 0.17 |
| LTCFVISVGTSSLIIDFWI | -0.647 ± 0.39 |
| ITDCPCRGISVCVV | -0.288 ± 0.26 |
| SLPFVTS | -0.319 ± 0.71 |
| CWLTRCCITWVIHRVMANLM | 0.51 ± 0.84 |
| SLRITLVWGRMQCGPESVCR | 0.745 ± 0.24 |
| RIDLGQTVFMVKYIAA | 0.122 ± 0.17 |
| HRWSDVFPWRTVKMYQLSRC | 0.552 ± 0.76 |
| DSSRNGKF | -0.563 ± 0.64 |
| TIDIV | 2.28 ± 0.13 |
| FRKLAIFHLAE | 0.207 ± 0.69 |
| KRTHSTLHK | 0.36 ± 0.38 |
| TTRCVFSPDNVDTDY | inactive |
| PRNVFMSKTNNHFQRAFSVT | 0.925 ± 0.69 |
| CMGLFVTSSL | 0.38 ± 1.2 |
| DDFTLCKPGLVYMMSG | 0.398 ± 0.6 |
| RDNCSLNVYFK | 2.9 ± 0.14 |
| SMGWYGYFLYLNCDDSFPYW | 3.79 ± 0.069 |
| LFAPPYLLAVMEE | 0.97 ± 0.72 |
| FPWSGAWMD | 0.029 ± 1 |
| LFVTCPHLSTQ | 1.26 ± 0.69 |
| SLGVYGQGSGWMLVVNVWEV | 1.97 ± 0.24 |
| GFGWLCYCGPYNLGRFSLSV | -0.124 ± 0.66 |
| SMRRAI | -0.263 ± 1.4 |
| GSYRLKCCTYLVGKY | 1.73 ± 0.28 |

| Substance | amyloid nucleation score |
| --- | --- |
| GGTRDVFEFHNSDTPDAVYQ | -0.043 ± 0.3 |
| RFAAFIEQGFTTKK | 1.87 ± 0.14 |
| GILFVFFQYF | 1.95 ± 0.15 |
| WRGLPSNG | 0.024 ± 0.36 |
| VDRFEVLTYLKE | -0.175 ± 1 |
| SCNYWCERVQGNSLWVGWVH | -0.126 ± 0.35 |
| SDALPVYVEFREGGKSRGWT | -0.916 ± 1.1 |
| VYGVRAIR | 0.503 ± 0.61 |
| WCYVYRSRRVSMTSWVLRTQ | 0.19 ± 0.26 |
| RVSKYQYCIMYWRYRAI | 0.442 ± 0.56 |
| GKKAYALGMSYLESCL | 1.37 ± 0.73 |
| RDMVKLHVHTLHCNDDILGL | -0.896 ± 0.62 |
| VRTLLWSS | -1.55 ± 2.4 |
| VWPAQGS | -0.325 ± 0.8 |
| FLACGYMFGFRQSYHRPFRF | 3.35 ± 0.095 |
| NKDYMVVLTDFS | -0.326 ± 0.2 |
| ADNFIGVVYTMLVRRYMPNS | -1.65 ± 1.2 |
| HSALIQSIEGVINVGCGVKK | 1.25 ± 0.23 |
| SHPNRTCKWLHSSVLRTPVL | 0.313 ± 0.49 |
| LRSSVSFGQLSRNPHAGSSH | -1.4 ± 1.4 |
| YSLLTVASREVSKQSGTSRI | 0.42 ± 1.2 |
| YYFEVAVGQMSFTANVLVLS | 2.34 ± 0.28 |
| IWCHRSGRLFPSMLLKYYRD | -0.766 ± 1.7 |
| LFMGVRTKVNGSAVI | 0.183 ± 0.17 |
| WMTTEIRRAIIEIRSVLWTS | 0.33 ± 0.55 |
| TDADYTPHVQSVPYYAHLII | 3.88 ± 0.14 |

| Substance | amyloid nucleation score |
| --- | --- |
| SGVSVVEGYHRSRVACRSVM | -0.158 ± 0.52 |
| VKGSGGGWFERNSGAPRKVF | 1.03 ± 0.38 |
| RRGGDSMDYNCFSARSRAFM | -0.146 ± 0.71 |
| GGYWWQDRRHGPILYLVFWA | 0.552 ± 0.34 |
| PNIFCLQRSPNRP | -0.331 ± 0.31 |
| CISAVPCM | 0.497 ± 0.43 |
| DATCLESLALSYKG | -0.573 ± 0.41 |
| YFEFSIHSQRYIQWSHYLVL | -1.05 ± 1.7 |
| FSMVAPTVILLKYYN | -0.111 ± 0.21 |
| FKSASVRRI | -0.822 ± 0.84 |
| CAIWFRTEWFWTVCTWVSGH | -0.201 ± 0.43 |
| SFVVHVICGHVCSWSFSVWF | 0.178 ± 0.33 |
| CLRLVQEFTFMYTVVHGARC | 1.13 ± 0.71 |
| MLSGP | -0.161 ± 0.67 |
| FRLGPLEQ | -1.61 ± 1.7 |
| ISWVPDAVNFFACMHW | 0.094 ± 0.51 |
| GMSGYKKFCSGIWWSLNQCS | 0.408 ± 0.42 |
| LCITRT | -0.521 ± 0.56 |
| AGYCVCLYMLEYSGTFGYSH | 1.63 ± 0.19 |
| SKRLLQL | -0.665 ± 0.87 |
| QSFSKKEESYILYITRVHEP | 0.88 ± 0.69 |
| LYESELLNNHQETSPQSSEG | -0.349 ± 0.56 |
| PCSQPFT | -0.154 ± 0.45 |
| WNIGYNFVSDSLPPRNYFVE | -0.198 ± 0.37 |
| HRTDYENFPSSKSRRMLVRV | 0.436 ± 1.2 |
| VTLTYNYVRRTHMRRDVVAK | 0.6 ± 0.34 |
